Measured values taken from paper PMC4402515 (Nucleic Acids Research, 2015).

Key:
[1] = biological target: the molecule itself; assay: crystal structure
[2] = biological target: the molecule itself; assay: SAXS

B1: SFPQ-276–535 (domain or fragment)
chain: EGFKANLSLLRRPGEKTYTQRCRLFVGNLPADITEDEFKRLFAKYGEPGEVFINKGKGFGFIKLESRALAEIAKAELDDTPMRGRQLRVRFATHAAALSVRNLSPYVSNELLEEAFSQFGPIERAVVIVDDRGRSTGKGIVEFASKPAARKAFERCSEGVFLLTTTPRPVIVEPLEQLDDEDGLPEKLAQKNPMYQKERETPPRFAQHGTFEYEYSQRWKSLDEMEKQQREQVEKNMKDAKDKLESEMEDAYHEHQANLL
- stoichiometry N [1]: 2

B2: SFPQ-369–598 (domain or fragment)
chain: HAAALSVRNLSPYVSNELLEEAFSQFGPIERAVVIVDDRGRSTGKGIVEFASKPAARKAFERCSEGVFLLTTTPRPVIVEPLEQLDDEDGLPEKLAQKNPMYQKERETPPRFAQHGTFEYEYSQRWKSLDEMEKQQREQVEKNMKDAKDKLESEMEDAYHEHQANLLRQDLMRRQEELRRMEELHNQEMQKRKEMQLRQEEERRRREEEMMIRQREMEEQMRRQREESYS
- stoichiometry N [1]: 2

B3: SFPQ-276–598 (domain or fragment)
chain: EGFKANLSLLRRPGEKTYTQRCRLFVGNLPADITEDEFKRLFAKYGEPGEVFINKGKGFGFIKLESRALAEIAKAELDDTPMRGRQLRVRFATHAAALSVRNLSPYVSNELLEEAFSQFGPIERAVVIVDDRGRSTGKGIVEFASKPAARKAFERCSEGVFLLTTTPRPVIVEPLEQLDDEDGLPEKLAQKNPMYQKERETPPRFAQHGTFEYEYSQRWKSLDEMEKQQREQVEKNMKDAKDKLESEMEDAYHEHQANLLRQDLMRRQEELRRMEELHNQEMQKRKEMQLRQEEERRRREEEMMIRQREMEEQMRRQREESYS
- stoichiometry N [1]: 2

B4: SFPQ-276–598/NONO-53–312 heterodimer (complex)
chain 1: EGFKANLSLLRRPGEKTYTQRCRLFVGNLPADITEDEFKRLFAKYGEPGEVFINKGKGFGFIKLESRALAEIAKAELDDTPMRGRQLRVRFATHAAALSVRNLSPYVSNELLEEAFSQFGPIERAVVIVDDRGRSTGKGIVEFASKPAARKAFERCSEGVFLLTTTPRPVIVEPLEQLDDEDGLPEKLAQKNPMYQKERETPPRFAQHGTFEYEYSQRWKSLDEMEKQQREQVEKNMKDAKDKLESEMEDAYHEHQANLLRQDLMRRQEELRRMEELHNQEMQKRKEMQLRQEEERRRREEEMMIRQREMEEQMRRQREESYS
chain 2: EGLTIDLKNFRKPGEKTFTQRSRLFVGNLPPDITEEEMRKLFEKYGKAGEVFIHKDKGFGFIRLETRTLAEIAKVELDNMPLRGKQLRVRFACHSASLTVRNLPQYVSNELLEEAFSVFGQVERAVVIVDDRGRPSGKGIVEFSGKPAARKALDRCSEGSFLLTTFPRPVTVEPMDQLDDEEGLPEKLVIKNQQFHKEREQPPRFAQPGSFEYEYAMRWKALIEMEKQQQDQVDRNIKEAREKLEMEMEAARHEHQVMLM
- binding result [2]: binds
